Data reported in US20210318312.

Assays:
[1] = test system: DLAT K259 Acetyl peptide
[2] = test system: DLAT K259 Lipoyl peptide

recombinant SIRT5 (Sigma, cat. #SRP0119-100UG), sequence (chain, as listed by the source): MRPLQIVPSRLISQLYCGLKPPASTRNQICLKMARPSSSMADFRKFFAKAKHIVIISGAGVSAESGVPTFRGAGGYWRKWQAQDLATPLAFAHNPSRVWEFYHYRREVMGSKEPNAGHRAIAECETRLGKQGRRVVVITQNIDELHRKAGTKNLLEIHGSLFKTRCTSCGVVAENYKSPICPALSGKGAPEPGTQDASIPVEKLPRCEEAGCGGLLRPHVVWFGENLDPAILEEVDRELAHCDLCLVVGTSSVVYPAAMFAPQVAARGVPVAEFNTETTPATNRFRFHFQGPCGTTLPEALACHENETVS

## recombinant SIRT5 (Sigma, cat. #SRP0119-100UG)
[1]
  in vitro deacylation kinetics: low, but detectable activity was measured for DLAT acetyl
[2]
  in vitro deacylation kinetics: no activity was detected for DLAT lipoyl (SEQ ID NO: 8) reactions
